From US20080113421A1, “Stabilizing proteins against denaturation and inactivation by charged detergents using chemical modifications, including modifications that increase net charge” (President and Fellows of Harvard College, priority 2006, published 2008)

Columns and labels:
Assay type in all cases: physicochemical
[1] = Unfolding (denaturation) of protein in SDS in Tris-Gly buffer, monitored by DNSA fluorescence
Experimental: Monitoring unfolding of BCA and BCA-Ac18 was performed as follows. The proteins (200 nM) were incubated in different concentrations of SDS in Tris-Gly buffer. A 100 microliter aliquot of protein-SDS solution was mixed with 100 microliters of DNSA solution (30 micromolar) with the same concentration of SDS, and measured the intensity of fluorescence (Perkin-Elmer LS50B spectrometer, λex=280 nm, λem=460 nm) as a function of time. The denaturation of BCA was continuously monitored in concentrations of SDS above 4 mM. The rate constants were determined for denaturation by fitting the intensity vs. time data to FU=FUmaxe^−kt+FUmin. Unfolding experiments at 37° C. were performed similarly, with samples stored in a dry bath incubator (Fisher Scientific).
The kinetics of unfolding were determined as follows. The rates of denaturation of BCA and BCA-Ac18 were measured by incubating the protein (200 nM) in solutions of different concentrations of SDS. Immediately prior to the measurement, an aliquot of solution containing protein and SDS was mixed with a solution containing DNSA and the same concentration of SDS; this protocol minimized the possibility that DNSA might stabilize the native conformation of the protein, and influence the rate of its denaturation. When BCA was denatured in concentrations of SDS of 4 mM and higher, DNSA was added to the original, denaturing solution because the rate of denaturation was too fast to follow with manual mixing of aliquots of protein and DNSA. It was observed that DNSA, when present with the protein in the denaturing solution, reduced the rates of denaturation by factors of about 2-10.
FIG. 1 plots the fluorescence of DNSA, normalized to the signal at t=0, as a function of time of incubation of samples of BCA and BCA-Ac18 in various concentrations of SDS. The decrease in the intensity of fluorescence of DNSA, and thus in the amount of folded protein, followed first-order kinetics. Denaturation of proteins with surfactants probably proceeds through intermediates, but when using a marker that is specific to the folded active site of carbonic anhydrase, transitions beyond the initial unfolding of the three-dimensional structure of the protein were not detected.
The tables list the half-lives (t1/2) for denaturation of BCA and BCA-Ac18 at several concentrations of SDS. The denaturation of BCA at 4 mM occurred very rapidly, and data are not shown to avoid overlap with data at 3.5 mM. The error bars represent the difference between the average and the largest and smallest values measured from at least three replicate measurements.

[2] = Refolding after 1 week incubation at intermediate SDS concentrations (aggregation test); details: denatured in 10 mM SDS, incubated 1 week at intermediate SDS, diluted into 0.1 mM SDS
Experimental: Aggregation was tested by renaturing the proteins from a denatured state at 10 mM SDS to 0.1 mM SDS, but through an incubation step at intermediate concentrations of SDS, instead of renaturing by rapid dilution from 10 mM SDS to 0.1 mM SDS directly (i.e., 10 mM SDS→2.5 mM SDS→0.1 mM SDS instead of 10 mM SDS→0.1 mM SDS). For incubation, concentrations of SDS were chosen in which aggregation was believed to occur on a similar or shorter time scale as refolding. The protein-SDS complex was diluted from 10 mM SDS to 2.5-0.7 mM SDS, the proteins were incubated for 1 week at those concentrations, and the samples further diluted to 0.1 mM SDS to initiate fast refolding.
The fluorescence signal from DNSA was normalized to that of refolded protein by rapid dilution from 10 to 0.1 mM SDS.

[3] = Net charge of protein (capillary electrophoresis, charge ladder)
Experimental: BCA-Ac18 was synthesized by reacting the lysine residues of BCA with acetic anhydride in 100 mM HEPES buffer, pH 8.2. The N-terminus of BCA was acetylated posttranslationally. The final product contained ˜90% of BCA-Ac18 and 10% of BCA-Ac17, as determined by peak areas in an electropherogram from separation by capillary electrophoresis. The net charge of BCA in Tris-Gly buffer was about −3, and the net charge of BCA-Ac18 was about −19. It is believed that the difference in charge between BCA and BCA-Ac18 was less than 18 full units of charge due to charge regulation-adjustment of protonation states of other ionizable groups on the protein to counteract the increasing electrostatic potential on its surface.
For any charge ladder of BCA, as the number of modifications (n) increases, the total charge on the protein becomes more negative, and the surface of the protein becomes more hydrophobic due to conversion of NH3^+ groups to NHCOR groups. Native BCA has a charge of ˜−2.9 at pH 8. The charge on the early rungs of the ladder increased linearly with the number of acylations; each rung adds an additional charge of ˜−0.9. Therefore, for example, BCA-Ac8 has a charge of ˜−10. The later rungs of the ladder may differ by <0.9 units of charge. Using the Linderstrom-Lang model of cooperativity in proton binding, the charge on BCA-Ac18 was calculated to be −19. The mobility of a given rung of BCA-Acn may have nearly the same mobility as the corresponding rung of BCA-Hexn. Thus, the charges of the BCA-Hexn may be indistinguishable from those of BCA-Acn for a given rung number. (Small deviations in mobility between later rungs of the two ladders may be due either to a change in charge or a change in drag between the two ladders. It can be assumed that any differences in the mobilities are due to additional drag from the hexanoyl groups relative to the acetyl groups.

**Q.** For bovine carbonic anhydrase II [BCA], which t1/2 for denaturation ([1]; 4 mM SDS, Tris-Gly buffer, with DNSA present during denaturation) is on record?
**A.** Its t1/2 for denaturation is 15 s.

**Q.** What about the t1/2 for denaturation ([1]; 10 mM SDS, Tris-Gly buffer) of the same substance?
**A.** The t1/2 for denaturation was under 5 s.

**Q.** And the “denaturation in low concentrations of SDS” value ([1]; SDS below 2 mM, long (~1 month) periods of time)?
**A.** Its value is “no denaturation”.

**Q.** And the “concentration of SDS at which the protein denatures” value ([1]; Tris-Gly buffer, CMC 4.3 mM)?
**A.** Its value is at least 2500 µM.

**Q.** What about the t1/2 for refolding [2] of the same substance?
**A.** The t1/2 for refolding was 648 ± 36 s.

**Q.** What about the net charge ([3]; Tris-Gly buffer) of the same substance?
**A.** Its net charge is “about −3”.

**Q.** And the charge ([3]; pH 8)?
**A.** Its charge is about −2.9.
